This passage reports Michaelis-Menten constant (K M) of substrate ubiquitination by PRT1 results from PMC5763331.

This assay addresses PROTEOLYSIS1 (PRT1) (Arabidopsis thaliana) (UniProt Q8LBL5).

Chain of E2-conjugating enzyme UBC8 (P35131 whole entry): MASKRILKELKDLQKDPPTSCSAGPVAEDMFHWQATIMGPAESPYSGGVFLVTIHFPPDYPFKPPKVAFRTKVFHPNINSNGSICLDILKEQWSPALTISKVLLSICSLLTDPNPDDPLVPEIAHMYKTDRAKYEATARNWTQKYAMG
Chain of PROTEOLYSIS1 (PRT1) (Arabidopsis thaliana) (Q8LBL5 whole entry): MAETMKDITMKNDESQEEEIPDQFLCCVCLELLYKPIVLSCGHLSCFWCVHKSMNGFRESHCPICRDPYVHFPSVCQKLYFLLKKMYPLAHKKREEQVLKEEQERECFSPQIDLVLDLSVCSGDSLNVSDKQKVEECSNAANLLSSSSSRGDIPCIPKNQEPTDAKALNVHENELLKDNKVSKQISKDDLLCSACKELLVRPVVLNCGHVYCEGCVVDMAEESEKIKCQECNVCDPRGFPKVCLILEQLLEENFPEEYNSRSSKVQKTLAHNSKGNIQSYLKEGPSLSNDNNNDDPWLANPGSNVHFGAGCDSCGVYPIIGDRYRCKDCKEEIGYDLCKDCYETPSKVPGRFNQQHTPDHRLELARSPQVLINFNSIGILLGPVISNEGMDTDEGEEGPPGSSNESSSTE

“E2-conjugating enzyme UBC8 (from UniProt P35131 1-148)” displayed a Michaelis-Menten constant (K M) of substrate ubiquitination by PRT1 at different E2 concentrations (fluorescence polarization of the F-eK-Flv-NBD substrate, UBC8 up to 2 μM) of 0.08 µM.
